From patent US20150050278A1 (US Dept. of Health and Human Services, published 2015) come the findings set out here.

For assay [1], the target named is T1, human neonatal Fc receptor (FcRn), soluble (human, UniProt P55899 24-297; P61769 21-119, limits assumed).
T1 construct: also called human FcRn; human single-chain soluble FcRn
In words: SPR (BIAcore X100), human FcRn immobilised on CM5 chip, pH 6.0; SPR (BIAcore X100), FcRn on CM5 chip, pH 6.0. In general terms: Surface plasmon resonance follows binding to a sensor surface in real time, without labels.
Experimental: The interaction of monomeric Fc with immobilized FcRn was monitored by SPR detection using a BIAcore X100 instrument (GE Healthcare). Purified human FcRn was diluted in 10 mM Na-acetate buffer, pH 5.0, and immobilized on a CM5 biosensor chip using amine coupling kit. The running buffer was PBS with 0.005% Tween 20 for testing binding at pH 7.4, or PBS pH 6.0 with 0.005% Tween 20 for binding at pH 6.0. […] After 10 min of dissociation, the chip was regenerated with pH 8.0 buffer (100 mM Tris, pH 8.0, 50 mM NaCl).
Human FcRn was immobilized on a CM5 bio sensor chip followed by analysis of the interaction using BIAcore X100. The binding was performed under pH 6.0 and pH 7.4, respectively, and the chip was regenerated with pH 8.0 buffer.

The target of assay [2] is T1, human neonatal Fc receptor (FcRn), …. The assay is described as follows: ELISA on coated human FcRn at pH 6.0, OD405. On the technique in general: In an ELISA, binding on a coated surface is turned into a signal by an enzyme label.
Experimental: Antigens were coating on ELISA plate wells at 50 ng per well in PBS overnight at 4° C., blocked with protein-free blocking buffer for 1 h at 37° C. Threefold serially diluted protein was added and incubated at 37° C. for 2 h. The plates were washed with PBST, and HRP-conjugated anti-Fc antibody in PBS was incubated with wells for 1 h at 37° C. After extensive washes with PBST, the binding was detected with the addition of ABTS substrate, and signals were read at 405 nm. For FcRn binding test at pH 6.0, all proteins were prepared in PBS with pH adjusted to 6.0 by HCl, and PBST with pH 6.0 was used for washing the wells.
For assay [3] the target is unchanged. The assay is described as follows: SPR (BIAcore), human FcRn immobilised, pH 6.0; concentrations not given.
Assay [4] shares this target. In words: SPR (BIAcore), human FcRn immobilised, pH 6.0; SPR (BIAcore), FcRn on the chip, pH 6.0.
Experimental: The interaction of monomeric Fc with immobilized FcRn was monitored by SPR detection using a BIAcore X100 instrument (GE Healthcare). Purified human FcRn was diluted in 10 mM Na-acetate buffer, pH 5.0, and immobilized on a CM5 biosensor chip using amine coupling kit. The running buffer was PBS with 0.005% Tween 20 for testing binding at pH 7.4, or PBS pH 6.0 with 0.005% Tween 20 for binding at pH 6.0. […] After 10 min of dissociation, the chip was regenerated with pH 8.0 buffer (100 mM Tris, pH 8.0, 50 mM NaCl). Another test with a protein concentration of 500 nM was repeated to monitor the regeneration efficiency.
It was determined whether mCH3 could bind FcRn in a pH-dependent manner. Surface plasmon resonance (SPR) binding was performed using a BIAcore instrument with human FcRn immobilized on the chip, as described previously. The measurements were carried out under pH 6.0 or pH 7.4, and the chips were regenerated after binding by injection of a pH 8.0 buffer.
For assay [5] the target is unchanged. The assay is described as follows: SPR, human FcRn immobilised, pH 6.0; pH 6.0.

One may read the Kd as the constant that tells how readily two partners part at equilibrium. What is called EC50 (read off the curve) is the midpoint of the concentration-response curve. Read a low EC50 (read off the curve) as an effect from little substance.

T1 sequence (P55899 24-297 limits assumed, chain 1 of 2): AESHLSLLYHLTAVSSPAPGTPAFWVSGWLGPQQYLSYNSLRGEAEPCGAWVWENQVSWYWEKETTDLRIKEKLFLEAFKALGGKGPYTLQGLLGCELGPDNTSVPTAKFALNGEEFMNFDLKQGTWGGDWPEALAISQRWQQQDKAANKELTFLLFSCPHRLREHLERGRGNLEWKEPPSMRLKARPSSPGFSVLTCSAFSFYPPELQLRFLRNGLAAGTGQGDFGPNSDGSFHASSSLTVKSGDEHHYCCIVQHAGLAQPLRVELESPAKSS
T1 sequence (P61769 21-119 limits assumed, chain 2 of 2): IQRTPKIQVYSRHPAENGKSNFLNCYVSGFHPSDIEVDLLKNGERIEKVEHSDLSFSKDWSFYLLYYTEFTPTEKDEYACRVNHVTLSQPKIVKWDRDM

B1: mFc.1 (designed binder)
chain: APELLGGPSVFLFPPKPKDTLMISRTPEVTCVVVDVSHEDPEVKFNWYVDGVEVHNAKTKPREEQYNSTYRVVSVLTVLHQDWLNGKEYKCKVSNKALPAPIEKTISKAKGQPREPQVYTYPPSRDELTKNQVSLYCAVKGFYPSDIAVEWESNGQPENNYKTTRPVLDSDGSFRLMSALTVDKSRWQQGNVFSCSVMHEALHNHYTQKSLSLSPGK
notes: also called monomeric Fc mFc.1
In the case of B1, the affinity in assay [1], expressed as Kd, was 204 nM. Further, the “EC50 (read off the curve)” value in assay [2] is approximately 100 nM.

B2: mFc.67 (designed binder)
chain: APELLGGPSVFLFPPKPKDTLMISRTPEVTCVVVDVSHEDPEVKFNWYVDGVEVHNAKTKPREEQYNSTYRVVSVLTVLHQDWLNGKEYKCKVSNKALPAPIEKTISKAKGQPREPQVYTKPPSRDELTKNQVSLSCLVKGFYPSDIAVEWESNGQPENNYKTTVPVLDSDGSFRLASYLTVDKSRWQQGNVFSCSVMHEALHNHYTQKSLSLSPGK
notes: also called monomeric Fc mFc.67; mFc.67 monomer
On to B2, for which the equilibrium dissociation constant (Kd) in assay [1] stood at 111 nM.

B3: mFc.23 (designed binder)
chain: APELLGGPSVFLFPPKPKDTLMISRTPEVTCVVVDVSHEDPEVKFNWYVDGVEVHNAKTKPREEQYNSTYRVVSVLTVLHQDWLNGKEYKCKVSNKALPAPIEKTISKAKGQPREPQVYTSPPSRDELTKNQVSLRCHVKGFYPSDIAVEWESNGQPENNYKTTKPVLDSDGSFELKSALTVDKSRWQQGNVFSCSVMHEALHNHYTQKSLSLSPGK
notes: also called monomeric Fc mFc.23
In assay [1], B3 came in with a Kd of 59 nM. Further, the “EC50 (read off the curve)” value in assay [2] is approximately 60 nM.

B4: wild-type CH3 domain (other)
chain: PREPQVYTLPPSRDELTKNQVSLTCLVKGFYPSDIAVEWESNGQPENNYKTTPPVLDSDGSFFLYSKLTVDKSRWQQGNVFSCSVMHEALHNHYTQKSLSLSPGK
notes: also called isolated CH3; Fc CH3 domain
Consider B4, for which the binding result in assay [3] is listed as “no binding”.

B5: monomeric CH3 domain (mCH3) (designed binder)
chain: PREPQVYTSPPSRDELTKNQVSLRCHVKGFYPSDIAVEWESNGQPENNYKTTKPVLDSDGSFFLYSKLTVDKSRWQQGNVFSCSVMHEALHNHYTQKSLSLSPGK
For the molecule B5, the dissociation constant (Kd) in assay [4] stood at 940 nM.

B6: mCH3 343C/431C mutant (mCH3cc) (designed binder)
chain: CREPQVYTSPPSRDELTKNQVSLRCHVKGFYPSDIAVEWESNGQPENNYKTTKPVLDSDGSFFLYSKLTVDKSRWQQGNVFSCSVMHECLHNHYTQKSLSLSPGK
modifications: additional disulfide bond between Cys343 and Cys431
notes: also called engineered mCH3
With B6, in assay [5], binding was put at a Kd of 1080 nM.
